This is an account of results in US20150258192A1, “COMPOSITIONS AND METHODS FOR PREVENTING OR TREATING CHRONIC LUNG ALLOGRAFT DYSFUNCTION (CLAD) AND IDIOPATHIC PULMONARY FIBROSIS (IPF)” (priority 2014, published 2015).

Common to all, as to experiment: Kinase Profiling Assay
What all share (assay type): biochemical
Conditions in all cases: peptide 100 μM

For assay [1], the target named is T1, BrSK1(h) (Homo sapiens, UniProt Q8TDC3).
T1 sequence (Q8TDC3 1-778): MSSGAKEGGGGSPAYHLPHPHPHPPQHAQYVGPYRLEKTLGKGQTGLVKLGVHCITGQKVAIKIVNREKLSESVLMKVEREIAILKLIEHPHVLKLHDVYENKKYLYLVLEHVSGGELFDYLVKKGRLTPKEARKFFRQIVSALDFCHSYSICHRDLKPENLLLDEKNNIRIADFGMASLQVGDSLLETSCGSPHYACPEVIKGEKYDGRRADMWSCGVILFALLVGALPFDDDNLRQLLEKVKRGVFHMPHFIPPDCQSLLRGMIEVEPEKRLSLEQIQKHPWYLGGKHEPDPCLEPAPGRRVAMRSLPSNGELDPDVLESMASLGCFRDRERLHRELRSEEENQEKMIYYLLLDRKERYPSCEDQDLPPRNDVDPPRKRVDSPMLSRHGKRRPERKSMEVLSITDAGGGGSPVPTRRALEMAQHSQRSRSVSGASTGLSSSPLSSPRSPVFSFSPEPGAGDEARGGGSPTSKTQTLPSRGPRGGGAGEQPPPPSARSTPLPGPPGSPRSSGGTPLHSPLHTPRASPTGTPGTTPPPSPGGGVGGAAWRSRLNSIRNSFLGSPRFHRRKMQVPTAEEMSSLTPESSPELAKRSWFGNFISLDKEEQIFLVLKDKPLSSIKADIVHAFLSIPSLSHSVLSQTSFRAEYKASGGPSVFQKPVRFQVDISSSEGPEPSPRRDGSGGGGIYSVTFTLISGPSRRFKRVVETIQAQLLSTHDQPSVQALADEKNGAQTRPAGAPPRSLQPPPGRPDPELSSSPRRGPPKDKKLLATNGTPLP
Put shortly:
(§1)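 Duplicate wells; [radiolabeled] ATP phosphate onto cationic substrate; filter capture (negatively charged membrane); scintillation count; % of 100% activity control. Selectivity screen of MK2 peptide inhibitors, 266 human kinases.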

Assay [2] concerns the target EphA4(h) (Homo sapiens, UniProt P54764). Put shortly: as §1
For assay [3], the target named is T2, TBK1(h) (Homo sapiens, UniProt Q9UHD2).
T2 construct: purchased Millipore
T2 sequence (Q9UHD2 1-729): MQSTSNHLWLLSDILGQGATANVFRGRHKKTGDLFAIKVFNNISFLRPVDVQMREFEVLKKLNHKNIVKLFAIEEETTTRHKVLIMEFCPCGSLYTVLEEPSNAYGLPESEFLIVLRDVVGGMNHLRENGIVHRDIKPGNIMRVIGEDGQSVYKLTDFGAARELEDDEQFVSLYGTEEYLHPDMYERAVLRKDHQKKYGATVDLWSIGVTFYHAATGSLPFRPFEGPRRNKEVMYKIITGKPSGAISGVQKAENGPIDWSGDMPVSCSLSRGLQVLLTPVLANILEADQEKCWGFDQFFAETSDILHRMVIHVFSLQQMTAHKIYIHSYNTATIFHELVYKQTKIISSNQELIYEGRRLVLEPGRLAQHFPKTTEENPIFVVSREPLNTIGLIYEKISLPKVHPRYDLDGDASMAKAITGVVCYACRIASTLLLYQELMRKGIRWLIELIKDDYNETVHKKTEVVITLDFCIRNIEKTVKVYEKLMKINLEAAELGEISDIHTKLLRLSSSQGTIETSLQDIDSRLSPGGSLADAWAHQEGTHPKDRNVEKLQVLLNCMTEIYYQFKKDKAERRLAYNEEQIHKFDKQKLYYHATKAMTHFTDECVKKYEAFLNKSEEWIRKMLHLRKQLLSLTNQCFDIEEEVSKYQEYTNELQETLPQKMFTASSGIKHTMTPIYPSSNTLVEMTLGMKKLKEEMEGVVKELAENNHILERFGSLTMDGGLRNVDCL
The method in brief: as §1

Assay [4] addresses T3, SIK(h) (Homo sapiens, UniProt P57059).
T3 construct: purchased Millipore
Put shortly:
as §1

Assay [5] concerns the target T4, LKB1(h) (Homo sapiens, UniProt Q15831).
T4 construct: purchased Millipore
T4 sequence (Q15831 1-433): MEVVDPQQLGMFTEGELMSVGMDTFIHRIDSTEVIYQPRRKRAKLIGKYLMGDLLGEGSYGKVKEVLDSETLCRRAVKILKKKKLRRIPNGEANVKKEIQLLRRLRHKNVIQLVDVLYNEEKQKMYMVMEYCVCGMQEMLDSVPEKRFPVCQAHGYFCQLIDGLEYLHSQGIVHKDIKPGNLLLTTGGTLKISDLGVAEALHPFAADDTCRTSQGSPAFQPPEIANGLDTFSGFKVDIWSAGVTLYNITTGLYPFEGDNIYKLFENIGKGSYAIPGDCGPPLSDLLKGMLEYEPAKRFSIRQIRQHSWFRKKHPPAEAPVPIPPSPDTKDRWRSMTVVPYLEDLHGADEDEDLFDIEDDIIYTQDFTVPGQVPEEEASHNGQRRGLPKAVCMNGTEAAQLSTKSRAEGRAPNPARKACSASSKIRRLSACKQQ
T4 sequence (Q7RTN6 1-431 partner): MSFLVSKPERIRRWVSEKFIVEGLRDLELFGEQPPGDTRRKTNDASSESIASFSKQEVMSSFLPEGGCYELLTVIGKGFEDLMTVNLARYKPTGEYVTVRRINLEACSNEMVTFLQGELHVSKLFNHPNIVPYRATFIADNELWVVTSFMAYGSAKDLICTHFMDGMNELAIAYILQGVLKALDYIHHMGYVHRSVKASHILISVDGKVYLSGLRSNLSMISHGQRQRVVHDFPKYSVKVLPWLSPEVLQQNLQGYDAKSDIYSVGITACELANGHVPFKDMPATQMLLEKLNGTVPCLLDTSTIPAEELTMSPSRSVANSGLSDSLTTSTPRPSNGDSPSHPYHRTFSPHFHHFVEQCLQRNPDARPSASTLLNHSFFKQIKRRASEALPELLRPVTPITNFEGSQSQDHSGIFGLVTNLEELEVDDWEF
T4 sequence (Q9Y376 1-341 partner): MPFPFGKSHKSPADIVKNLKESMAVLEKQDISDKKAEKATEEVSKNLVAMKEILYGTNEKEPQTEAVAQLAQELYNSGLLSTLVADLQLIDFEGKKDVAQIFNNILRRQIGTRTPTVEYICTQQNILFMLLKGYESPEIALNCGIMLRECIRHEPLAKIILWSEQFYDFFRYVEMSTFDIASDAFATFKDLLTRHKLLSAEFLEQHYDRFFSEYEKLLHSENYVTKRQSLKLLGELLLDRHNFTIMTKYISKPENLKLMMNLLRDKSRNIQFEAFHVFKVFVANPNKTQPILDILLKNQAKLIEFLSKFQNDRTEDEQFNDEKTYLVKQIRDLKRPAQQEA
Put shortly: as §1

No end group written: not given here.

Chain of EphA4(h) (P54764 20-986): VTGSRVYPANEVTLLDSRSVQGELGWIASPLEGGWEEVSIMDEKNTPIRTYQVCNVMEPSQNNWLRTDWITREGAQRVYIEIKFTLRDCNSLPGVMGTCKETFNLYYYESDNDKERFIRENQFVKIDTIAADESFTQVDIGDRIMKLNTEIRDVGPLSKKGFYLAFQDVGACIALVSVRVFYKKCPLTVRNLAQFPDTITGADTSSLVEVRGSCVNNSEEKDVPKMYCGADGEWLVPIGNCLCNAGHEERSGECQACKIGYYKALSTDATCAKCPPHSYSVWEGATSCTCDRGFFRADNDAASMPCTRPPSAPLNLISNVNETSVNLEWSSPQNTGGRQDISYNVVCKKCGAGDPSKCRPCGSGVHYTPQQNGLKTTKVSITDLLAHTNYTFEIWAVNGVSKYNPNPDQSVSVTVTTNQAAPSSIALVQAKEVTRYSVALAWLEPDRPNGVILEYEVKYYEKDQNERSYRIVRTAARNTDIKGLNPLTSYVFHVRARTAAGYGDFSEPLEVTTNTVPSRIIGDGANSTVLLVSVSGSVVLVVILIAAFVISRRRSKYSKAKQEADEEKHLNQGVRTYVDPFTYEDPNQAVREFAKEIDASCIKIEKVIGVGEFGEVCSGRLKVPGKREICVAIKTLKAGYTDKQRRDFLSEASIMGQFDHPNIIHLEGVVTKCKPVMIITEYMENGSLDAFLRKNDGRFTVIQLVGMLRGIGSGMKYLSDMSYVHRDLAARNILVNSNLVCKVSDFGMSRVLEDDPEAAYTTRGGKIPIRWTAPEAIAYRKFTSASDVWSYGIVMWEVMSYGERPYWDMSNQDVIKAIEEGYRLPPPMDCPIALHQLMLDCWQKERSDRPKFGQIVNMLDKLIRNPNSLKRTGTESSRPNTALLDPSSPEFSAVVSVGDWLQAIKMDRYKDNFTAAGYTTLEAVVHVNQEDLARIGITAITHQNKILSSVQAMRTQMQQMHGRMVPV
T3 sequence (P57059 whole entry): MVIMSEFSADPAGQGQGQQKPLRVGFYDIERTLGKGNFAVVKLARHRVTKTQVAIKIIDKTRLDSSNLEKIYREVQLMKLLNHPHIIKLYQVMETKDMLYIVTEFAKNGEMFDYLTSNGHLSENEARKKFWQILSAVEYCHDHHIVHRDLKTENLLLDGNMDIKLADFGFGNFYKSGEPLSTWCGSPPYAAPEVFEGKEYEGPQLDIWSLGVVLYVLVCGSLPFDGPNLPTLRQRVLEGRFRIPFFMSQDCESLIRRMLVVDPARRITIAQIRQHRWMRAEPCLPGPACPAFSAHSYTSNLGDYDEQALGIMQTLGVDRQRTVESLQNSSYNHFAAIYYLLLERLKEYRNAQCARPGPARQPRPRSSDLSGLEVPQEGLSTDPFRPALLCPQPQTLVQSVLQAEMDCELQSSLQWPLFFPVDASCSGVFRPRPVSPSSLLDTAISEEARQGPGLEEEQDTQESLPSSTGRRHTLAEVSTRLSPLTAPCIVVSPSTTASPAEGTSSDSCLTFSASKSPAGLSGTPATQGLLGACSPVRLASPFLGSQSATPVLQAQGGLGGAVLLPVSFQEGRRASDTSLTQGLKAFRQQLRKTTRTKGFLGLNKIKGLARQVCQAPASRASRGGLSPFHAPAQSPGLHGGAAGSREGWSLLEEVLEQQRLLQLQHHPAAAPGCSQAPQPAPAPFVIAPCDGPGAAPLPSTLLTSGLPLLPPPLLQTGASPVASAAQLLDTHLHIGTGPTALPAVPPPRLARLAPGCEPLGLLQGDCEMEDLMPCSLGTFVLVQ

Consider FAKLAARLYRKALARQLGVAA [MMI-0300], for which the “% activity” value is listed as 67% in assay [1]; 88% in assay [2]; 37% in assay [3]; 66% in assay [4]; 101% in assay [5].

Regarding “HRRIKAWLKKIKALARQLGVAA (Mammal) [MMI-0500]”, the “% activity” value in assay [1] was 72%; in assay [2] it was 48%; in assay [3], 16%; in assay [4], 40%; in assay [5], 51%.

Consider KAFAKLAARLYRKALARQLGVAA [MMI-0400], for which the “% activity” value in assay [1] is given as 76%; in assay [2], 65%; in assay [3] it was 39%; in assay [4], 68%; in assay [5], 89%.

Regarding YARAAARQARAKALARQLGVAA [MMI-0100], the “% activity” value in assay [1] amounted to 100%; in assay [2], 110%.

With “YARAAARQARAKALNRQLGVA (Mammal) [MMI-0200]”, the “% activity” value was found to be 93% in assay [1], 127% in assay [2], 98% in assay [3] and 99% in assay [5].
